Drawing on PMC7889650, this text covers stoichiometry N for one substance.

A word on the stoichiometry N: it is the number of molecules, sites or subunits per partner or assembly.

This test has as its target Nle-substituted 187-bp NCP (Xenopus laevis). Put plainly: cryo-EM structure.

For “NSD2C-E1099K/T1150A (from UniProt O96028 661-1365) (domain or fragment)”, the stoichiometry N is 1 NSD2 per NCP.
